Test results from paper PMC7195849 (Science signaling, 2019).
Ends that are not written are not given here. * marks the point of attachment. Biotin = O=C1N[C@H]2[C@H](CS[C@H]2CCCCC(=O)*)N1

T1: GST-PKCθ-C2^WT (GST fusion of the C2 domain of human PKCθ, aa 1–144) (human, UniProt Q04759 1-144)
T1 sequence (looked up): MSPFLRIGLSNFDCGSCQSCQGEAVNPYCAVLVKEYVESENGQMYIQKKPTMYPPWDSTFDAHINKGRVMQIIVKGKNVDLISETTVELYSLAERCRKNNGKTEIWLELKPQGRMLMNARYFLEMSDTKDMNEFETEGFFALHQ


Experiments:
PKCθ C2 domain, 1-144 = PKCθ C2 domain, 1-144 (UniProt Q04759); assay: ELISA, immobilized biotin-peptide, soluble GST-C2; details: reference: unphosphorylated Y126 peptide; sites Y126
[1] = molecular target: T1, GST-PKCθ-C2^WT (GST fusion of the C2 …); assay: ELISA

Molecule	binding against the reference (PKCθ C2 domain, 1-144)	binding result [1]
Zap70 (from UniProt P43403) pY126 peptide	stronger	–
Biotin-AMVRDYVRQTWK [Zap70 peptide Y126 (non-phosphorylated), N-terminally biotinylated]	–	binds
